First the molecules themselves.
B1: Twister Ribozyme (parent)
chain: AACACUGCCAAUGCCGGUCCCAAGCCCGGAUAAAAGUGGAGGGGGCGG

The record followed here is the RNAGym collection of RNA variant scans (doi:10.7554/elife.80360).

Variants of B1 are the subject of this data set. Kind of data set: self-cleavage, relative activity (ratio to wild type); higher = more cleavage; co-transcriptional.
Take A10G A22C: the self-cleavage amounted to 0.818.
For the variant G29U G45C, the self-cleavage was determined as 0.294.
Then A2C G47C, with 0.0493.
The value for U6C C14G was 0.0559.
For the variant U31A G36U, the self-cleavage came out at 0.292.
With G38C G44U, the self-cleavage is 1.02.
The value for C15A G42C was 0.182.
For U12G G24A, the self-cleavage turned out to be 0.177.
Take C14A C25U: the self-cleavage is 0.699.
A22G C46U: the self-cleavage is 0.286.
For G24A C26A, the self-cleavage was found to be 0.123.
On to A1U G42C, for which the self-cleavage is 0.0572.
On to G7U A35C, for which the self-cleavage is 0.0996.
Turning to G13C C46U, the self-cleavage turned out to be 0.485.
Then A35G A40G, with 0.118; and U6G C25A, with 0.058.
As for G36A G39A, the self-cleavage worked out at 0.195.
In the case of C9A C46U, the self-cleavage stood at 0.758.
With A4G C8U, the self-cleavage turned out to be 0.953.
The value for A34G A35U was 0.92; that for A23C G38C was 0.219.
Consider G43A G44A, for which the self-cleavage was found to be 0.267.
As for C27U G29A, the self-cleavage was 0.687.
Take A2U G29C: the self-cleavage is 0.195.
Take A11U: the self-cleavage amounted to 1.04.
As for A11G, the self-cleavage is 0.932.
Then A2U A10G, with 0.674; and G13C C26A, with 0.0939; and U12C G48A, with 0.952.
Regarding C25A G36C, the self-cleavage worked out at 0.0709.
For A33G A40U, the self-cleavage was 0.184.
A11G A30G: the self-cleavage came out at 0.674.
As to C21A G41U, the self-cleavage turned out to be 0.678.
Then G7U A30C, with 0.0485; and G7U C27G, with 0.0829; and C15G G44U, with 0.075.
With U12C A32C, the self-cleavage was 0.982.
On to A22G A33U, for which the self-cleavage stood at 0.237.
For the variant C5A G36U, the self-cleavage worked out at 0.689.
Take A22G A40G: the self-cleavage was 0.588.
Take A30C G48C: the self-cleavage was 0.933.
Turning to C19A G43A, the self-cleavage stood at 0.355.
Turning to G43C G44A, the self-cleavage amounted to 0.469.
U6C A10U: the self-cleavage turned out to be 0.602.
Take C8U G24C: the self-cleavage is 0.0664.
For the variant U31C G42A, the self-cleavage was found to be 0.363.
In the case of G36C G45A, the self-cleavage turned out to be 0.37.
Then U6C C21U, with 0.0537; and G13U G29A, with 0.368; and C14A C46U, with 0.827.
With G29C G38A, the self-cleavage is 0.796.
Regarding U6A, the self-cleavage is 1.03.
Regarding U18C G42U, the self-cleavage worked out at 0.0957.
On to A2G A33G, for which the self-cleavage is 0.442.
Then C3A, with 0.228; and U31A G42U, with 0.341; and G13A G17U, with 0.108.
Regarding A1G G48C, the self-cleavage is 0.524.
The value for G39U G47U was 0.187; that for C3A A40U was 0.0819.
A11C G13U: the self-cleavage was determined as 0.0589.
Consider A11C G13A, for which the self-cleavage was 0.188.
For the variant C25U G42A, the self-cleavage was found to be 0.148.
As to A32C, the self-cleavage was 0.967.
In the case of G7C A22C, the self-cleavage came out at 0.0571.
For U18C A40U, the self-cleavage came to 0.113.
With C8U G38A, the self-cleavage is 0.572.
Then G39U G48A, with 0.156; and A1G G28C, with 0.466; and A22C A23G, with 0.341.
Turning to C9A C25G, the self-cleavage was 0.0787.
G13U G36A: the self-cleavage amounted to 0.13.
With U6G C26G, the self-cleavage was found to be 0.0499.
Then U12C U18A, with 0.474; and C14G G38U, with 0.111.
Regarding U18G G39A, the self-cleavage worked out at 0.107.
Take C3A C14U: the self-cleavage was found to be 0.176.
Take C20A C26G: the self-cleavage worked out at 0.105.
On to G24C U37A, for which the self-cleavage came out at 0.107.
For C26U A30U, the self-cleavage was determined as 0.556.
Take G7U C26A: the self-cleavage turned out to be 0.0629.
The value for A2G G41C was 0.141.
For G16U U31G, the self-cleavage worked out at 1.04.
Regarding C27A G48A, the self-cleavage amounted to 0.275.
As to U18C A22U, the self-cleavage turned out to be 0.243.
Turning to G17A A30G, the self-cleavage is 0.615.
On to A2G C21G, for which the self-cleavage was determined as 0.215.
With A1G C25U, the self-cleavage worked out at 0.222.
Take C8A U18C: the self-cleavage turned out to be 0.0479.
The value for A30G A33G was 0.806; that for C21U A35G was 0.108.
Consider C27U G47A, for which the self-cleavage turned out to be 0.56.
For G13A A32G, the self-cleavage was 0.882.
Then A10G G43A, with 0.363; and A11C G44U, with 0.791; and C5G A30U, with 0.883.
Take C15A G45C: the self-cleavage amounted to 0.352.
Turning to G16C A40G, the self-cleavage came out at 0.135.
Then C20G G36C, with 0.168; and A32C A33U, with 0.865.
With C9G C20U, the self-cleavage came to 0.23.
For the variant G7A G42U, the self-cleavage was determined as 0.136.
Consider C8U G47U, for which the self-cleavage was found to be 0.345.
The value for A4G G24C was 0.0502; that for A35G G45C was 0.373.
The value for A22U G48A was 0.666; that for A4U G16A was 0.0873.
As for G17C G44A, the self-cleavage stood at 0.109.
The value for G17A U37G was 0.175.
Take G36U: the self-cleavage was 0.479.
U37C G41U: the self-cleavage amounted to 0.126.
A10C G41C: the self-cleavage amounted to 0.23.
Take G47U G48A: the self-cleavage came to 0.819.
With A2U U12C, the self-cleavage worked out at 0.732.
With A1G C19A, the self-cleavage was determined as 0.247.
As for G36C G48C, the self-cleavage came to 0.657.
For A4U G36A, the self-cleavage was determined as 0.056.
As for G16C G28U, the self-cleavage amounted to 0.383.
With C15A U31G, the self-cleavage stood at 0.76.
On to C5G G39U, for which the self-cleavage amounted to 0.134.
With G42U G47C, the self-cleavage was 0.224.
Consider A22C G36U, for which the self-cleavage was 0.204.
On to G24U C46A, for which the self-cleavage amounted to 0.0884.
For C9G G42C, the self-cleavage was found to be 0.199.
The value for G44U C46A was 0.476.
Consider C9G C26A, for which the self-cleavage turned out to be 0.115.
With G47C G48A, the self-cleavage stood at 0.666.
As to A1U G16A, the self-cleavage worked out at 0.0911.
Turning to G43A G45A, the self-cleavage worked out at 0.318.
In the case of G28U G48U, the self-cleavage is 0.809.
As for C15U G44U, the self-cleavage turned out to be 0.988.
Regarding U6A A23G, the self-cleavage stood at 0.14.
On to A1G G17U, for which the self-cleavage was 0.221.
C27U G42U: the self-cleavage amounted to 0.177.
For the variant U18A C20U, the self-cleavage came to 0.168.
Regarding A4U G38C, the self-cleavage is 0.252.
The value for C14U G36U was 0.421.
As to A23U G44U, the self-cleavage is 0.484.
As for A2U C20U, the self-cleavage worked out at 0.3.
On to C15G C27A, for which the self-cleavage was found to be 0.198.
On to G7U G17U, for which the self-cleavage was 0.0401.
Consider C8U C46A, for which the self-cleavage is 0.5.
The value for C27G U37A was 0.106; that for C3A A11G was 0.185.
Then A10G A32U, with 1.01; and U18C C26A, with 0.0527.
In the case of A1U C25U, the self-cleavage came out at 0.0883.
The value for A32U G47C was 0.583; that for A22G C25U was 0.131; that for A23G C25G was 0.0343.
In the case of G7C A11C, the self-cleavage worked out at 0.0664.
Take A40C G45U: the self-cleavage is 0.171.
As for A33U G47U, the self-cleavage is 0.81.
In the case of A4C C14A, the self-cleavage was determined as 0.33.
Take A4C G7U: the self-cleavage was 0.0643.
As for G16A G48U, the self-cleavage is 0.917.
As for G36C G42U, the self-cleavage was found to be 0.145.
Turning to A4C U6C, the self-cleavage was found to be 0.0627.
Turning to A35U G36C, the self-cleavage turned out to be 0.592.
Turning to U6C C26G, the self-cleavage amounted to 0.125.
With C27U C46G, the self-cleavage was 0.914.
Take G36A U37A: the self-cleavage is 0.166.
On to U18A G48A, for which the self-cleavage came out at 0.279.
As to A40C G41C, the self-cleavage came to 0.15.
G45U G48U: the self-cleavage is 0.757.
As for G42C G47U, the self-cleavage worked out at 0.491.
G7C A10C: the self-cleavage was 0.0829.
